Data from paper PMC11551393 (Proceedings of the National Academy of Sciences of the …, 2024).

What was measured:
cryo-EM structure = target: the molecule itself; assay: cryo-EM structure
[1] = target: T1, Bdf1(372-554) (in the fused complex for cryo-EM) (S. pombe, UniProt Q9Y7N0 372-554); assay: cryo-EM structure
T1 sequence (looked up): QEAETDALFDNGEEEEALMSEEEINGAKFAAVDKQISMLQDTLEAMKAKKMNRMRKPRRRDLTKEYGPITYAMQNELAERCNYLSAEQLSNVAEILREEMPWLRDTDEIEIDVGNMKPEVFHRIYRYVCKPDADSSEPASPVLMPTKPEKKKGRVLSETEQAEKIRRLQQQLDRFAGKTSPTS

binding result [1]: binds
B1: Tdk1(211-357) (in the fused complex for cryo-EM) (domain or fragment, S. pombe, UniProt O74876 211-357, looked up)
chain: MDEWRKSTDEWRKSTDERLENLLNIVREILDVQRDMRNDLSNLTRKVDRMDMRLSRNNNMIMRSFAQPITEVPFFNGDIPDPNLPRITRIEDIDSLSEENCTRYLKGYGVSYDENDQSLWKRQLAKAVGLTAAYDESYTFSPFSSSE
stoichiometry N (cryo-EM structure): 6
